Source: the DeepSol protein solubility set

Test: soluble on expression in E. coli; label from the status in PepcDB or PDB records

**Q.** For “MAHHHHHHMLTDNQNCLEMERSDKRVTVALINTRSGERTAAEFVRKQMETHLGEENVFYLFPSGKPAIAEAKKFLERHNPAVVIVAGGDGTVSLALDITDGLRRTNMLSATSAYVAVLPMGTGNDLSRTLGFGGGYVKPLLNPEKKFKRLLDRLAHAKGIKMDRWSVQIQKKSTLTVASTGEDAHAGDSSRTYGVDDVHVVEKTMMNYFSIGFDATIVRQFNDFRNDHPTMCSQRSLNKLWYGCFGCGSMCNSVALPRKQMKLTVDDKCVAIPPGTKALLVTNVKTYAGGAVLWKDNRCRFAKPDVGDGLLEVTALYGVWHFAGVRMGIRKAMKVAQGNCIRIETPAYFAMQLDGEPVDELACGEEMIDVSITFFSRTLVMTCEGS”, which “soluble on expression in E. coli” value is on record?
**A.** not soluble

**Q.** Which “soluble on expression in E. coli” value does the source give for “GSRVALVTGANRGIGLAIARELCRQFSGDVVLTARDVARGQAAVQQLQAEGLSPRFHQLDIDDLQSIRALRDFLRKEYGGLNVLVNNAAVAFKSDDPMPFDIKAEMTLKTNFFATRNMCNELLPIMKPHGRVVNISSLQCLRAFENCSEDLQERFHSETLTEGDLVDLMKKFVEDTKNEVHEREGWPNSPYGVSKLGVTVLSRILARRLDEKRKADRILVNACCPGPVKTDMDGKDSIRTVEEGAETPVYLALLPPDATEPQGQLVHDKVVQNW” here?
**A.** soluble

**Q.** Which “soluble on expression in E. coli” value does the source give for “MSLKAIKNGTILTGTGETIKQGTLLIQDGKVLEVGQRVDTPANAKLIDATGKYVTPGLIDVHTHIGVFSEGLGRTGHDFNETTAAATPYIRAIDGIYPFDQGFEDARQSGVTTVQIMPGSANVIGGEMVTVKTAGTVVDEMIVRAPSGMKAAFGENPKNVHGGKGKLPATRMGVAALFRQQLYQAQDYLKRFEKGELEKRDLGMEQLAKVLRKEIPLRVHAHRADDIATVLRMVDEFDLEATIEHCTEGHLIADHIAKYNVKVSVGPTMTSRTKQELVNKGWHTLIELEKHGIPFSITTDHPVVTINHLVTSAIQAVKAGLSEQSAFQAITLRAAEHIGVEQQVGSLEKGKDGDFVIWSDHPFTATAQVEATYINGKCVTGSHCEGHHHHHH” here?
**A.** soluble

**Q.** For “MGSDKIHHHHHHMLSRIAESLFWIGRYVERADGTARILDVHLERLNHLPTEERDNVARELLAVMGARPESDEFGLEELLHALAYDKQSATSIAGSLGAARENARRARETVSSGLWESLNTTYYGLNQHRKDVVGTYRFCHWVLERTAMVSGLADTTVSHDDSWLFLALGRSLERADMTARMLSTRDVLSAGMSWVNMLRCAGAYESFLRTRRAAFGDQHAAEFLLLDRLFPRSIVYALRDADECLAKLDPSAQRVGFINDARRIVGQARTFLEFHRTDDLMSELPEHMERVQKAVSQASDAISRKYFNQADELAWVGEVS”, which “soluble on expression in E. coli” value is on record?
**A.** not soluble

**Q.** Which “soluble on expression in E. coli” value does the source give for “MINLRWPLNWLKLQSSHGQRLNSQLNLIHSRKWIDFDEQIVGTWKLASSENCPNFIEWFGIEKKKSNYGYYNDLTQAKLNENLVFKMNYNNIVGIPKLFPHMSEKTVRENRHIKTTDDRSLKLTIDRYIDMGKLNVTMELKVNEGKHVCTCKLVYDRVYY” here?
**A.** not soluble

**Q.** Which “soluble on expression in E. coli” value does the source give for “STHSELMEKFLTDYLNDLQGRNDDDASGTWDFYGSSVCEPDDESGYDVLANPPGPEDQDDDDDAYSDVFEFEFSETPLLPCYNIQVSVAQGPRNWLLLSDVLKKLKMSSRIFRCNFPNVEIVTIAEAEFYRQVSASLLFSCSKDLEAFNPESKELLDLVEFTNEIQTLLGSSVEWLHPSDLASDNYW” here?
**A.** soluble

**Q.** With “MRGSHHHHHHTDPALRASIKNLPADYLLAAQQGDIDKVKTCLALGVDINTCDRQGKTAITLASLYQQYACVQALIDAGADINKQDHTCLNPFLISCLNDDLTLLRIILPAKPDLNCVTRFGGVGLTPACEKGHLSIVKELLAHTEINVNQTNHVGWTPLLEAIVLNDGGIKQQAIVQLLLEHGASPHLTDKYGKTPLELARERGFEEIAQLLIAAGAGLCGR” as the sequence, how does the “soluble on expression in E. coli” value read?
**A.** soluble

**Q.** For “MGSDKIHHHHHHMNEKTTTAQKGAPRARVSATRVRSASRTPHATTVNPADLTVHNHPLARRHYRVATAAIEGFVDLVEHCVRVLIPGALIYARPRMGKTHAIDYLALHLGRNRGDILVLRMSCEYHRTDYEGAFFSALLSAAGIRDPQPRFIADKRFALMRRINEQLQMRSGHIVVLFCDEAQRLSKHALEWLRDVHDQLAHHGVRLITFLVGQPQLMEQKAQYQLSGDEQIVARFMIEQLHFRGITGAVEAATCLASYDMTRYPEDTGSTFTAFFYPDAYAAGLRLEQSAAALWNGFVNAHKVAQLAGPIELHMDYFSRAVESVLLNGPQWDSAGLVLDSAYWERAVRESGYVAAQQTVQPEV”, which “soluble on expression in E. coli” value is on record?
**A.** not soluble

**Q.** For “MGSDKIHHHHHHMEMAIYCGKTYSWANELCSKPLKEVKVVDYNSVVDWVNSQKERAFLIFGTDVIPYSLYEYPKIPVNETPLFKFMERGGVVIWTGDVPFFYIEKDGIKKELFSKGNPFPFKPISVMGHKPLSEKSENSIVGEMLKYDPKDSWRPVEPHPLLIPISIVKSHPYTLYSTWIYKYGKGAFVRLYDSPYVNTQYILSLPERLSSLGIGIRISNFRRFRDFKMIFPEFKIGVILGKNNVGKTTILEAIAMLGKNEDKIRKFRGNISTEIAETELFVNYTYYKAEFSYSQVNRSADVNVLLIYSHDIDFVIDDKVLPYVKSSLRKVTELLNSFDPNIFYVYLSSGNELRVLFNDRTDVSINELGYGYKSLLNFILLYVIYQPRIILIDDLEGFALHPDLLKMFYDLLLKIDVDLILITTQSSDIYAYLAEKRSDKVRFILINDDKYEVLTSEEVLDRLYYEDLRYTALKIH”, which “soluble on expression in E. coli” value is on record?
**A.** not soluble

**Q.** With “SSAAQPGVAFSVDNTIKRPNPAPGTRKKSSNAEVIKELNKCREENSMRLDLSKRSIHILPSSIKELTQLTELYLYSNKLQSLPAEVGCLVNLMTLALSENSLTSLPDSLDNLKKLRMLDLRHNKLREIPSVVYRLDSLTTLYLRFNRITTVEKDIKNLSKLSMLSIRENKIKQLPAEIGELCNLITLDVAHNQLEHLPKEIGNCTQITNLDLQHNELLDLPDTIGN” as the sequence, how does the “soluble on expression in E. coli” value read?
**A.** soluble

**Q.** Which “soluble on expression in E. coli” value does the source give for “SLFNPNELKMDFLKRPVTHSFLKLEIMPYKSAFNLRMRENIQSYYKQALRGWGSFEDELLGLKNTLKNLPLYQTLKIKPKKINAPICVVGNGPSLDLLLDFLKENEKNCIIFSCGTALKPLKTHGVKVDFQIEVERIDYLKEVLENAPLEDTPLMGANMLNPNAFNVAKEALMFMRGGSACAYISPLSIEYAAPLVGNAGVALAGLMSDEIYLCALDCAYIKGFKKHAQNSYYGDEKEIDTSSLISVEGNFKGYETFSDSLFLLSKERIEEALNHYQPKKVYNLSYGAKIKHAVSLNYSQVKL” here?
**A.** not soluble

**Q.** For “MVATVVNVQVKNEEKIETAPKKVVFDTKNLNLWYGEDHALKDINLSIHENEVTAIIGPSGCGKSTYLKTLNRMVELVPIVRTTGVIEYRERNIFDKSYPVEELRTHVGMVFQKPNPFPKSIYENVAYGPKIHGISDKKTLDEIVEKSLRGAAIWDELKDRLHDNAYGLSGGQQQRLCIARCLAIEPDVILMDEPTSALDPISTLKVEELIQELKKDFSIVIVTHNMQQAARISDKTAFFLSGEVVEYTDTNKLFTTPSDKRTEDYITGRFG”, which “soluble on expression in E. coli” value is on record?
**A.** not soluble

**Q.** With “MSLLPVNNPPLSTGNVSFYRTTSIDNVHNNYLSEWVEWTKNSISGENRETAFTRLQLCLENSETSLDLSCLGLRSLPRLPDNLDEINVSNNQLSMLPELPRALKELNASSNQLSALPELPVSLEYINVSDNHLFALPELPASLEYINVSDNHLSVLPRLPMSLELLDAARNALEVIPDFPERDDHIIRIFWLNQNRITAIPESILGLSSDSVVNLRENQLSPRIMQTLLQQTAQPDYHGPRIYFSMSDGQQNTLHRPLADAVTAWFPENKQSDVSQIWHAFEHEEHANTFSAFLDRLSDTVSARNTSGFREQVAAWLEKLSASAELRQQSFAVAADATESCEDRVALTWNNLRKTLLVHQASEGLFDNDTGALLSLGREMFRLEILEDIARDKVRTLHFVDEIEVYLAFQTMLAEKLQLSTAVKEMRFYGVSGVTANDLRTAEAMVRSREENEFTDWFSLWGPWHAVLKRTEADRWAQAEEQKYEMLENEYPQRVADRLKASGLSGDADAEREAGAQVMRETEQQIYRQLTDEVLALRLSENGSQLHHSEGHHHHHH” as the sequence, how does the “soluble on expression in E. coli” value read?
**A.** soluble

**Q.** Which “soluble on expression in E. coli” value does the source give for “MSKRNTQQRRHNIIADLNAQGEVSVDSLAKQFDTSEVTIRKDLAALETSGLLLRRYGGAVALPSEITEAKVDQLSQQKLHIAKKAAMLIRDHNRIIIDSGQTTSALVSELANKKGLVVMTNALSIANEIHALENEPTLLMTGGTWDATSEAFQGQVAEQVLRSYDFDQLFIGADGIDIKRGTTTFNELIGLSRVMAEVAREVIVMVESAKITKKIPNLELNWQQIHTVITDDGLSEEMRIALTEQGVKLIIAKGLEHHHHHH” here?
**A.** soluble

**Q.** For “MTKQVKIYHNPRCSKSRETLNLLKENGVEPEVVLYLETPADAATLRDLLKILGMNSARELMRQKEDLYKELNLADSSLSEEALIQAMVDNPKLMERPIVVANGKARIGRPPEQVLEIVG”, which “soluble on expression in E. coli” value is on record?
**A.** not soluble

**Q.** Which “soluble on expression in E. coli” value does the source give for “MTAPRYPRDMIGYGATPPNANWPGNARIAVQIVLNYEEGGENNILHGDAASEAFLSEIVGAAPWPGQRHWNMETIYEYGARAGFWRLHRLMRDLPVTVYGVATALARSPDQVAAMKSAGWEIASHGLKWVEHKDMPEEEERAQIAEAIRLHTEVTGSRPRGWYTGRCSMNTVRLASEAGIDYIADTYDDDLPYWKRIDGRDQLIVPYTLDCNDMRFATPQGFNSGDQFFAYLKDSFDALYAEGGEGAPKMLSIGLHCRLIGRPGRVMALKRFLDYARGHEDVWFATRLQIAEHWVREHPPVARTRPSEMPKADFVAAYGGIFEHSPWIAERAHGLELGPAHDTAGGLHNALCRMFRSASAEERLGVLTAHPDLAGKLAQAKRLTAESTSEQASAGLDALTDEERTTFTRLNTEYVARFGFPFIIAVRDHDKASILAAFQRRIGNDRETEFAEACRQVERIAEFRLRDVLPSLEHHHHHH” here?
**A.** soluble

**Q.** Which “soluble on expression in E. coli” value does the source give for “PPHVKYIKEKEICDYEPSSDAGHFRWYPKGKLIRDLLSDYVYNLVVENGGMPVETPVMYDLQNNAIREHADKFGERQYRFKQGNKDLMLRFAACFGQFMMKKDMYLLPKHMPLKLYELSTYSFRYEQRGELVGLKRLRAFTMPDMHTVCIDMKQAMEAFEDQLWMGLKTGDDFKTPYAIIFRFTEDFFEENKEWFFGMAKEYKQKYGKDAILEILPGRKHYWVGKVDMAVVDSFGRPIENPTVQIDVESAERFGIVVHDGDKKVQPIILHCSPTGSVERVLCGLLEN” here?
**A.** not soluble

**Q.** Which “soluble on expression in E. coli” value does the source give for “MSAEASGPAAAAAPSLEAPKPSGLEPGPAAYGLKPLTPNSKYVKLNVGGSLHYTTLRTLTGQDTMLKAMFSGRVEVLTDAGGWVLIDRSGRHFGTILNYLRDGSVPLPESTRELGELLGEARYYLVQGLIEDCQLALQQKRETLSPLCLIPMVTSPREEQQLLASTSKPVVKLLHNRSNNKYSYTSTSDDNLLKNIELFDKLALRFHGRLLFLKDVLGDEICCWSFYGQGRKIAEVCCTSIVYATEKKQTKVEFPEARIFEETLNILIYETPRGPDPALLEATGGAAGAGGAGRGEDEENREHRVRRIHVRRHITHDERPHGQQIVFKD” here?
**A.** soluble

**Q.** For “MVLFSEDHIQETRRRGRIEVICGSMFSGKTEELIRRMKRAKFARQRVEIFKPAIDTRYSEEDVVSHDSHSIASTPIDSSASILLFTSEIDVVGIDEAQFFDDGLIDVCRQLANNGIRVIIAGLDMDFKGNPFGPMPQLCAIADEVSKVHAICVKCGDLASFSHRTVKNDKQVLLGETAEYEPLCRECYLRARGEDGQKILEHHHHHH”, which “soluble on expression in E. coli” value is on record?
**A.** soluble
